Experimental data published in publication doi:10.1101/2022.06.09.495453.

Target: SHLD2^1-95 (human)
Experiment: SEC-MALS

REV7 of the SHLD3-SHLD2^1-95-REV7 ternary complex (Shieldin), sequence (Q9UI95 whole entry, one chain of several): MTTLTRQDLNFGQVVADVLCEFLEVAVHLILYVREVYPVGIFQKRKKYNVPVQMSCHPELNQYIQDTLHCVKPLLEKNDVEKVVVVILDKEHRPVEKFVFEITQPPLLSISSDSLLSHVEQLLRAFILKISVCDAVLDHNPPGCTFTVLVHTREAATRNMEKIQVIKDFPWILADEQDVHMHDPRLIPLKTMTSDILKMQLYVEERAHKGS

## REV7 of the SHLD3-SHLD2^1-95-REV7 ternary complex (Shieldin) (from UniProt Q9UI95 1-211) (natural protein)
  stoichiometry N (REV7 per SHLD2^1-95): 2
